Data reported in patent US6927039B2, “Enzymatic process” (Nanobiodesign Limited, priority 2000, dated 2005).

What was measured:
Assay in all cases: Substrate-dependent NADPH consumption assay at 340 nm, purified enzyme (in vitro)
Type in all cases: biochemical, Bacillus megaterium
Settings in all cases: other: purified enzyme, NADPH 130-150 μM, 20° C., pH 8.0
[1] = substrate: CCCCCCCCCCCC(=O)O
Experimental: (§1) NADPH consumption was followed at 340 nm using a Δε340=6.22 mM^−1·cm^−1. Both assays were performed at 20° C. using P450 BM3 in 100 mM potassium phosphate buffer, pH 8.0. Reaction was initiated by addition to the substrate bound enzyme of NADPH to a final concentration of 130-150 μM. In the kinetics assay the rate constant kcat was calculated from the linear part of the decrease in A340 with time, which lasted at least for the first 4 sec. The enzyme concentration typically varied between 0.4 and 0.8 μM in the binding assay and between 8 and 25 nM in the catalytic assay. Substrate stock solutions were freshly prepared the day of the assay. Fatty acid stock solutions were in 50 mM potassium carbonate, SDS was easily dissolved in water, while TCE stock solutions were prepared in ethanol. If appropriate, stocks of candidate agents may be prepared in, for example, N,N-dimethylformamide just before the assay. […] The confidence interval for Kd given in the results section is the mean±the standard deviation of at least four measurements, as calculated using the software Kaleidagraph. Similarly kcat was calculated by fitting data points to the Michaelis-Menten equation. Each data point is the mean of at least four measurements.

[2] = substrate: ClC(Cl)C(Cl)Cl
Experimental: as §1

[3] = substrate: CCCCCCCCCCCCOS(=O)(=O)[O-].[Na+]
Experimental: as §1

[4] = substrate: CCCCC/C=C\C/C=C\C/C=C\C/C=C\CCCC(=O)O
Experimental: as §1

B1: cytochrome P450 BM3 (Priestia megaterium NBRC 15308 = ATCC 14581) (protein)
chain: MTIKEMPQPKTFGELKNLPLLNTDKPVQALMKIADELGEIFKFEAPGRVTRYLSSQRLIKEACDESRFDKNLSQALKFVRDFAGDGLFTSWTHEKNWKKAHNILLPSFSQQAMKGYHAMMVDIAVQLVQKWERLNADEHIEVPEDMTRLTLDTIGLCGFNYRFNSFYRDQPHPFITSMVRALDEAMNKLQRANPDDPAYDENKRQFQEDIKVMNDLVDKIIADRKASGEQSDDLLTHMLNGKDPETGEPLDDENIRYQIITFLIAGHETTSGLLSFALYFLVKNPHVLQKAAEEAARVLVDPVPSYKQVKQLKYVGMVLNEALRLWPTAPAFSLYAKEDTVLGGEYPLEKGDELMVLIPQLHRDKTIWGDDVEEFRPERFENPSAIPQHAFKPFGNGQRACIGQQFALHEATLVLGMMLKHFDFEDHTNYELDIKETLTLKPEGFVVKAKSKKIPLGGIPSPSTEQSAKKVRKKAENAHNTPLLVLYGSNMGTAEGTARDLADIAMSKGFAPQVATLDSHAGNLPREGAVLIVTASYNGHPPDNAKQFVDWLDQASADEVKGVRYSVFGCGDKNWATTYQKVPAFIDETLAAKGAENIADRGEADASDDFEGTYEEWREHMWSDVAAYFNLDIENSEDNKSTLSLQFVDSAADMPLAKMHGAFSTNVVASKELQQPGSARSTRHLEIELPKEASYQEGDHLGVIPRNYEGIVNRVTARFGLDASQQIRLEAEEEKLAHLPLAKTVSVEELLQYVELQDPVTRTQLRAMAAKTVCPPHKVELEALLEKQAYKEQVLAKRLTMLELLEKYPACEMKFSEFIALLPSIRPRYYSISSSPRVDEKQASITVSVVSGEAWSGYGEYKGIASNYLAELQEGDTITCFISTPQSEFTLPKDPETPLIMVGPGTGVAPFRGFVQARKQLKEQGQSLGEAHLYFGCRSPHEDYLYQEELENAQSEGIITLHTAFSRMPNQPKTYVQHVMEQDGKKLIELLDQGAHFYICGDGSQMAPAVEATLMKSYADVHQVSEADARLWLQQLEEKGRYAKDVWAG
notes: expressed in transfected cells; host or cells: E. coli BL21(DE3) transformed with pT7Bm3Z
Question: Which Km [1] does the source give for B1 here?
Answer: 67.8 ± 14.5 µM

Question: What about the kcat [1] of the same protein?
Answer: 1928 ± 114 mole NADPH/min/mole P450

Question: What about the Km [2] of the same protein?
Answer: 7.96 ± 2.041 mM

Question: What about the kcat [2] of the same protein?
Answer: 5133.5 ± 641.3 mole NADPH/min/mole P450

Question: And the Km [3]?
Answer: 0.51 ± 0.12 µM

Question: And the kcat [3]?
Answer: 2605 ± 61 mole NADPH/min/mole P450

Question: And the Km [4]?
Answer: 0.37 ± 0.07 µM

Question: And the kcat [4]?
Answer: 3570 ± 88 mole NADPH/min/mole P450
